Measured values published in publication PMC10634230, “The XIST lncRNA is a sex-specific reservoir of TLR7 ligands in SLE”.

T1: TLR7 Fc chimera (recombinant human TLR7) (Homo sapiens, UniProt Q9NYK1 27-839)
T1 sequence: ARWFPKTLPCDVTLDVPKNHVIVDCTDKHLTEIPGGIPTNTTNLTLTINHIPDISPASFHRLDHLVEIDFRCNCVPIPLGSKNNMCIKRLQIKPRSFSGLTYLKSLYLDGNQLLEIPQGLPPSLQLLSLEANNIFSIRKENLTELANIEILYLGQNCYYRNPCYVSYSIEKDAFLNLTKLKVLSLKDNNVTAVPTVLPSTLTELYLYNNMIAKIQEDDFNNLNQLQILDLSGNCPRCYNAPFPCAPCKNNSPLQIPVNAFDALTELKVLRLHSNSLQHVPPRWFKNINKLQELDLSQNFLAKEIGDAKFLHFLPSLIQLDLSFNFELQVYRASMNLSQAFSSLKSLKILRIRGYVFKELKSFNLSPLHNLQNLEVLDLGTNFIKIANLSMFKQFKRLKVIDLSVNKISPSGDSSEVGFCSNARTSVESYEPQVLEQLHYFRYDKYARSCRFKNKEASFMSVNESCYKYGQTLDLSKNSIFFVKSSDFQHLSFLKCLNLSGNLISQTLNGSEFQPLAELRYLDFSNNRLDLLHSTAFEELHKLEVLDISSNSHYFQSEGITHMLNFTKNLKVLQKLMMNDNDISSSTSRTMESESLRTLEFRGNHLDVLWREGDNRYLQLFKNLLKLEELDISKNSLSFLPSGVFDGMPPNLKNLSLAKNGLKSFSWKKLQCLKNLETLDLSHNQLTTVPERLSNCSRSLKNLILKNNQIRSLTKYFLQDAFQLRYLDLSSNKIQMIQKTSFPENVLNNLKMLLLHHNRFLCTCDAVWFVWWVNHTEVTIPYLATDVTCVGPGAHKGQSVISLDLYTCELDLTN


Target: T1, TLR7 Fc chimera (recombinant human TLR7)
Test: fluorescence anisotropy; 10 uM HEPES (so in the source), 150 mM NaCl, 300 uM EDTA, 1 mM DTT, 1% glycerol; pH and temperature not stated; FA: 20 nM RNA, 10-300 nM TLR7, 10 min; EMSA: 100 ng RNA, 1 ug TLR7 in 20 uL, 30 min, 5% polyacrylamide gel
Conditions: protein: commercial; tags: Fc chimera; chain copies: 2; label: 5' FAM

Binder	Kd	binding result
GUUGUCAAUGGUCCUUCAA (ssRNA) [XIST1.1]	138 nM	
AAAAAAAAAAAAAAAAAAA (ssRNA) [polyA]		no binding
UUGAAGGACAGGUUAAGCU (ssRNA) [RNA9.2a]	752 nM	
AGCUUAACCUGUCCUUCAA (ssRNA) [RNA9.2s]	292 nM	
